Positions count from the first letter of the chain named. Names and notes keep the numbering of the source.

The target in data set [1] is T1, Sad (NAD(P)+-dependent succinate semialdehyde dehydrogenase, SSADH) (Escherichia coli, UniProt P76149, Q262R).
T1 construct: dimeric on size exclusion
In words: NADH formation at […] nm, substrate-inhibition fit. It is filed as biochemical. Conditions: 1 mM NAD+, 75 mM HEPES pH 8.0, 37 °C.

Data set [2] addresses T1, Sad (NAD(P)+-dependent succinate semialdehyde dehydrogenase, SSADH). In words: X-ray crystallography. Type of data set: binding. Conditions: 5 mM NAD+, 1 mM TCEP.
Data set [3] concerns the target T2, Sad (NAD(P)+-dependent succinate semialdehyde dehydrogenase, SSADH) (Escherichia coli, UniProt P76149).
T2 construct: dimeric on size exclusion
In words: X-ray crystallography. It is filed as binding.

The target in data set [4] is T3, ThrA (bifunctional aspartokinase (AK)/homoserine dehydrogenase (HDH) 1) (Escherichia coli, UniProt P00561).
T3 sequence (P00561 1-820): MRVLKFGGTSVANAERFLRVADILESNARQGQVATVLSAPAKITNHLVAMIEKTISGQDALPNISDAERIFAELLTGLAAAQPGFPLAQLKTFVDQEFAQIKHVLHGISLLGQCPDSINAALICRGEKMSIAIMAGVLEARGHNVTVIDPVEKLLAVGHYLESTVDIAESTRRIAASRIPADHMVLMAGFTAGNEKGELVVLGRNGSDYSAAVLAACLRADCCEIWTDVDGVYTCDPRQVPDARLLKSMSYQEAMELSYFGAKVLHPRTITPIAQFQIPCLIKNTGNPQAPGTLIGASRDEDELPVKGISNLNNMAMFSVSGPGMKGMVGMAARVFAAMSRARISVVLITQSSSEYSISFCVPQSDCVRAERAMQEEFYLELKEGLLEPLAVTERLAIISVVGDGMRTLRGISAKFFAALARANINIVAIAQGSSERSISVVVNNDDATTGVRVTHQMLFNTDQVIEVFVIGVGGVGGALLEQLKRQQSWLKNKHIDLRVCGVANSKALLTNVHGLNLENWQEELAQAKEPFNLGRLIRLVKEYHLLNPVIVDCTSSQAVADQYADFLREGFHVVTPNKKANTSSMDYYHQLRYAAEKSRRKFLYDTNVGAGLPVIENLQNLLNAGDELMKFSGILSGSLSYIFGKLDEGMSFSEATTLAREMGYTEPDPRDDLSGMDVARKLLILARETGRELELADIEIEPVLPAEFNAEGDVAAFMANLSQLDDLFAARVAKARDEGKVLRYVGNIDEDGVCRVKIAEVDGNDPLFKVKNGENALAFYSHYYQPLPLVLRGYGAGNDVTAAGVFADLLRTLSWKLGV
In words: aspartate kinase, PK/LDH-coupled, NADH at […] nm. It is filed as biochemical. The conditions noted are these: 4 mM ATP, 5 mM L-aspartate, 5 mM MgCl2, pH 8.0, 37 °C.

In data set [5] the target is T3, ThrA (bifunctional aspartokinase (AK)/homoserine dehydrogenase (HDH) 1). Kind of data set: homoserine dehydrogenase, NADPH consumption at […] nm. Conditions: 0.2 mM NADPH, 1 mM substrate, 100 mM KCl, pH 8.0, 37 °C. It is filed as biochemical.
The target of data set [6] is T2, Sad (NAD(P)+-dependent succinate semialdehyde dehydrogenase, SSADH). In words: NADH formation at […] nm, substrate-inhibition fit. Type of data set: biochemical. Conditions: 1 mM NAD+, 75 mM HEPES pH 8.0, 37 °C.
Substrate in data set [7]: O=C[C@H](O)COP(=O)(O)O
In words: purified protein. Type of data set: biochemical, Escherichia coli. The conditions noted are these: 1 mM NAD+, 75 mM HEPES pH 8.0, 37 °C.

Substrate in data set [8]: O=CCCC(=O)O
Kind of data set: purified protein. Type of data set: biochemical, Escherichia coli. The conditions noted are these: 75 mM HEPES pH 8.0, 37 °C.

Substrate in data set [9]: O=C[C@H](O)[C@H](O)COP(=O)(O)O
In words: purified protein. Type of data set: biochemical, Escherichia coli. Conditions: 1 mM NAD+, 75 mM HEPES pH 8.0, 37 °C.

Data set [10] concerns the molecule itself. Kind of data set: SEC; HiLoad 16/600 Superdex 200 pg, 20 mM HEPES-KOH, 50 mM KCl, pH 7.5; preparative step after affinity purification, before crystallisation.

T1 sequence (P76149 whole entry Q262R): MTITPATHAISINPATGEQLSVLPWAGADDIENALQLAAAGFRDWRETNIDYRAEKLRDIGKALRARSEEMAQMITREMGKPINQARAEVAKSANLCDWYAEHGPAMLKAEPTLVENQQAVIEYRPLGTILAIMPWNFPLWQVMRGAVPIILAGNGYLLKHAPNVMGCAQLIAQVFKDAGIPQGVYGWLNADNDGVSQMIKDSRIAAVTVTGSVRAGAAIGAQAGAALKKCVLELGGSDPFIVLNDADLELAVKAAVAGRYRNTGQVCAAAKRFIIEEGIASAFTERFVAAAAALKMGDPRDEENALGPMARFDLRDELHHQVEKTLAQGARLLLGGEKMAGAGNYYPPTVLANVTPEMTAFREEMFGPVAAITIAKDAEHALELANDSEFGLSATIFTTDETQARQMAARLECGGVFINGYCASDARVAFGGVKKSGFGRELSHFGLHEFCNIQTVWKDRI

In the case of `O=C[C@H](O)COP(=O)(O)O` [glyceraldehyde 3-phosphate], the “App. Ki” value in data set [1] is 1400 ± 300 µM.
In the case of `NC(=O)c1ccc[n+]([C@@H]2O[C@H](COP(=O)(O)OP(=O)(O)OC[C@H]3O[C@@H](n4cnc5c(N)ncnc54)[C@H](O)[C@@H]3O)[C@@H](O)[C@H]2O)c1` [NAD^+], the X-ray crystallography result in data set [2] was “crystal structures of both Sad WT and Q262R variants with bound NAD^+”; in data set [3] (5 mM NAD+), “crystal structures of both Sad WT and Q262R variants with bound NAD^+”.
As to `N[C@@H](CC(=O)O)C(=O)O` [L-aspartate], the “aspartate kinase, PK/LDH-coupled, NADH at 340 nm” value in [4] was “Aspartate kinase activities of ThrA variants were determined”.
Consider `O=C[C@H](O)[C@H](O)COP(=O)(O)O` [erythrose 4-phosphate], for which the “App. Ki” value in data set [1] was 7400 ± 3300 µM.
Regarding `N[C@@H](CC=O)C(=O)O` [L-aspartic 4-semialdehyde], the “homoserine dehydrogenase, NADPH consumption at 340 nm” value in [5] is reported as “Homoserine dehydrogenase activities of ThrA variants were determined”.
As to `O=CCCC(=O)O` [succinate semialdehyde], the entries for the “App. Ki” value in [6] and in [1] were 300 ± 100 µM and 500 ± 100 µM, respectively. Moreover, the X-ray crystallography result in [3] (covalent, bound to C268, NAD+ present, crystal soaked with 5 mM SSA) is recorded as “the latter is covalently bound to C268”.

B1: Sad (NAD(P)+-dependent succinate semialdehyde dehydrogenase, SSADH) (Escherichia coli K-12) (protein)
chain: MTITPATHAISINPATGEQLSVLPWAGADDIENALQLAAAGFRDWRETNIDYRAEKLRDIGKALRARSEEMAQMITREMGKPINQARAEVAKSANLCDWYAEHGPAMLKAEPTLVENQQAVIEYRPLGTILAIMPWNFPLWQVMRGAVPIILAGNGYLLKHAPNVMGCAQLIAQVFKDAGIPQGVYGWLNADNDGVSQMIKDSRIAAVTVTGSVRAGAAIGAQAGAALKKCVLELGGSDPFIVLNDADLELAVKAAVAGRYQNTGQVCAAAKRFIIEEGIASAFTERFVAAAAALKMGDPRDEENALGPMARFDLRDELHHQVEKTLAQGARLLLGGEKMAGAGNYYPPTVLANVTPEMTAFREEMFGPVAAITIAKDAEHALELANDSEFGLSATIFTTDETQARQMAARLECGGVFINGYCASDARVAFGGVKKSGFGRELSHFGLHEFCNIQTVWKDRI
notes: dimeric on size exclusion
The term Km denotes the substrate concentration at which the rate is half of its maximum. For orientation: kcat means the number of substrate molecules converted per active site and unit of time at saturation. In general, kcat/Km refers to the turnover number divided by the Michaelis constant. As to B1, in the data set “purified protein [7]”, the Michaelis constant (Km) is reported as 1,106 ± 92 μM, the kcat was 3.1 ± 0.2 s⁻¹ and the kcat/Km came out at 2800 M⁻¹ s⁻¹. In “purified protein [8]” (1 mM NAD+), the Km was 11 ± 1 µM, the catalytic constant (kcat) amounted to 85 ± 3 s⁻¹ and the kcat/Km amounted to 7.4e+06 M⁻¹ s⁻¹. For the same molecule, in “purified protein [9]”, the Km is recorded as 2,102 ± 328 μM, the kcat turned out to be 1.1 ± 0.1 s⁻¹ and the catalytic efficiency (kcat/Km) came to 530 M⁻¹ s⁻¹.

B2: NAD(P)+-dependent succinate semialdehyde dehydrogenase of Escherichia coli (Sad), wild type (enzyme)
chain: B1 chain
notes: Succinate semialdehyde dehydrogenase Sad, E. coli; also called Sad WT; SSADH; source: E. coli BL21(DE3), purified (HisTrap, Superdex 200)
Consider B2, for which, in data set [10], the binding result is recorded as “binds”.

B3: Sad (NAD(P)+-dependent succinate semialdehyde dehydrogenase, SSADH) (Escherichia coli K-12; Q262R) (protein)
chain: B1 chain with Q262R
notes: dimeric on size exclusion
For B3, the values for the Km in “purified protein [7]”, in “purified protein [8]” (1 mM NAD+) and in the data set “purified protein [9]” were 67 ± 9 µM, 5 ± 1 µM and 28 ± 4 µM, respectively. Also, the results for the turnover number (kcat) in “purified protein [7]”, in the data set “purified protein [8]” (1 mM NAD+) and in the data set “purified protein [9]” were 19 ± 1 s⁻¹, 87 ± 4 s⁻¹ and 3 ± 0.1 s⁻¹, respectively. In addition, the values for the kcat/Km in “purified protein [7]”, in “purified protein [8]” (1 mM NAD+) and in “purified protein [9]” were 280000 M⁻¹ s⁻¹, 1.9e+07 M⁻¹ s⁻¹ and 110000 M⁻¹ s⁻¹, respectively.

B4: Succinate semialdehyde dehydrogenase Sad, Q262R variant (enzyme, Escherichia coli)
chain: B1 chain with Q262R
notes: Succinate semialdehyde dehydrogenase Sad, E. coli, with Q262R (arose in adaptive laboratory evolution); also called Q262R mutant; source: E. coli BL21(DE3), purified (HisTrap, Superdex 200)
Regarding B4, the binding result in data set [10] is given as “binds”.

B5: GabD (NADP+-dependent SSADH) (Escherichia coli K-12) (protein)
chain: MKLNDSNLFRQQALINGEWLDANNGEAIDVTNPANGDKLGSVPKMGADETRAAIDAANRALPAWRALTAKERATILRNWFNLMMEHQDDLARLMTLEQGKPLAEAKGEISYAASFIEWFAEEGKRIYGDTIPGHQADKRLIVIKQPIGVTAAITPWNFPAAMITRKAGPALAAGCTMVLKPASQTPFSALALAELAIRAGVPAGVFNVVTGSAGAVGNELTSNPLVRKLSFTGSTEIGRQLMEQCAKDIKKVSLELGGNAPFIVFDDADLDKAVEGALASKFRNAGQTCVCANRLYVQDGVYDRFAEKLQQAVSKLHIGDGLDNGVTIGPLIDEKAVAKVEEHIADALEKGARVVCGGKAHERGGNFFQPTILVDVPANAKVSKEETFGPLAPLFRFKDEADVIAQANDTEFGLAAYFYARDLSRVFRVGEALEYGIVGINTGIISNEVAPFGGIKASGLGREGSKYGIEDYLEIKYMCIGL
B5: in “purified protein [8]” (1 mM NADP+), the Km was 13 ± 1 µM, the kcat amounted to 132 ± 2 s⁻¹ and the kcat/Km is 1e+07 M⁻¹ s⁻¹.
